± gives the standard deviation of the averaged measurements.
Tested on: Saccharomyces cerevisiae
Test: protein stability index of tFT-peptide fusion (C-terminal peptide) (PSI (0-1 scale)); higher = more stable (slower turnover)
Conditions: genetic background: wild type; temperature: 30 C
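Further: PSI is a weighted mean of sequencing reads over stability bins, variants kept only with over 10 reads, mCherry proximal and sfGFP distal, peptide attached via GGGS linker.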

Sequence	protein stability index
VLGWRLLPTAGI	0.703 ± 0.062
VLILDVSFPRCD	0.766 ± 0.18
VLLLLYGMFRGR	0.59 ± 0.0094
VLLPEPCALRFT	0.551 ± 0.029
VLLRHRPKYACR	0.645 ± 0.022
VLLRRRSIWPLG	0.72 ± 0.0063
VLLRVSEQVSRV	0.676 ± 0.1
VLRFATIKRMYP	0.661 ± 0.018
VLRPFTPPSSRF	0.723 ± 0.047
VLSISINRGVRI	0.664 ± 0.0039
VLSRVSMSLGSP	0.767 ± 0.16
VLTGLLFRRPRS	0.604 ± 0.0062
VLVEWQTCRTRK	0.656 ± 0.097
VLVGRAGIVFLG	0.573 ± 0.04
VLVVRERGAVDG	0.697 ± 0.1
VLWVLDAFCFGG	0.643 ± 0.0084
VMGGWGCGVLRG	0.731 ± 0.021
VMNHYCRFPVST	0.598 ± 0.023
VMRRYVFPSGFF	0.677 ± 0.023
VMWVGGAAGPVV	0.663 ± 0.037
VNELYDNETTYV	0.734 ± 0.035
VPAPLPRTSPPS	0.673 ± 0.053
VPAYLVAARQYY	0.655 ± 0.012
VPFRLFSSYLSG	0.641 ± 0.037
VPGYLLIDFWWV	0.5707 ± 0.001

Sequence	protein stability index
VPHLPATPPAPP	0.646 ± 0.037
VPLTKHENNFNE	0.709 ± 0.018
VPPASTSPGAFP	0.6889 ± 0.003
VPPLVPLHPPPP	0.709 ± 0.047
VPPPRYLPAFPA	0.694 ± 0.0078
VPPSCPRPPTAP	0.676 ± 0.064
VPQREWGGVRLG	0.675 ± 0.017
VPRMLSTPKAQP	0.723 ± 0.01
VPSRRLPLPPAS	0.695 ± 0.0086
VPVGSLLVGSVT	0.528 ± 0.012
VQASESGLRAGV	0.686 ± 0.0092
VQASFLPGGSVR	0.7062 ± 0.0039
VQGFYPVSAEGG	0.674 ± 0.022
VQVLLMFTWERE	0.511 ± 0.016
VRCAVVTMDLTL	0.691 ± 0.05
VRCCFGGRGAIA	0.6461 ± 0.0016
VRDVIGWGEEEY	0.708 ± 0.017
VREVTIGGGLGE	0.707 ± 0.0087
VRGTGRQLNKSM	0.662 ± 0.054
VRGVCLWGGVVG	0.641 ± 0.099
VRLELIRSKLSR	0.701 ± 0.022
VRLLGVGGGFTC	0.701 ± 0.038
VRLRLGLLAGWS	0.633 ± 0.012
VRLWLTLQQVDF	0.686 ± 0.085
VRMKAAIGNGAE	0.6686 ± 0.0037

Sequence	protein stability index
VRNPPPLTRTRP	0.687 ± 0.0097
VRRFRYCLGFFR	0.663 ± 0.059
VRRGHEGCGLRY	0.717 ± 0.025
VRRGRQHLRYGR	0.708 ± 0.045
VRRSGMNIVVLP	0.63872 ± 0.00027
VRRSNKTIKRKK	0.746 ± 0.1
VRRVWYGSFSRL	0.81 ± 0.012
VRSFSFSALLAV	0.58 ± 0.024
VRSVSCPCCAHF	0.7058 ± 0.0056
VRVGVGGVSEFE	0.67062 ± 0.00015
VRVRGDPLVCPL	0.592 ± 0.0096
VRVSGVSVVRFW	0.667 ± 0.012
VRWGVGVGVGWD	0.682 ± 0.057
VSAPRLRVSCNP	0.696 ± 0.014
VSARRTLRFSFE	0.685 ± 0.016
VSCGGSARRASP	0.704 ± 0.0078
VSCLPFLDLMSW	0.701 ± 0.012
VSEKICNCLGKT	0.657 ± 0.088
VSGAAFMSSAFW	0.753 ± 0.045
VSGLKYSVLVGG	0.555 ± 0.015
VSLISCGGVYAG	0.688 ± 0.015
VSLVDRFVLAIV	0.5619 ± 0.0011
VSPGPSPPPPPR	0.622 ± 0.072
VSPLSHPPSPAP	0.702 ± 0.021
VSRPRSLLVPNF	0.67 ± 0.07

Sequence	protein stability index
VSSAGRPRGFLP	0.671 ± 0.01
VSSELLFLVVRF	0.543 ± 0.0089
VSTVFGCDICST	0.701 ± 0.034
VSVGEDGNRPTC	0.645 ± 0.071
VSVGGVWGQCVA	0.6618 ± 0.0047
VSVGLGRCSIFW	0.7217 ± 0.0048
VTAIVLSVLSGC	0.556 ± 0.022
VTEGGGGGKGRG	0.6917 ± 0.0064
VTGPLSSDSSFT	0.672 ± 0.017
VTGTQGELGSFV	0.689 ± 0.11
VTIDETMSKGIN	0.698 ± 0.045
VTSRSFYRVSPL	0.68 ± 0.14
VTSTVPRFPQFT	0.667 ± 0.014
VTTKMQVAGSRK	0.6377 ± 0.00065
VVAGCLWGEYAT	0.702 ± 0.17
VVAPETTPFSPR	0.7193 ± 0.007
VVCLGGVVLPRV	0.65788 ± 0.00012
VVEPEVCLPSMR	0.6942 ± 0.0032
VVFFPVLSYFFR	0.649 ± 0.064
VVFQSLPCLSPP	0.758 ± 0.037
VVGAGDWRWGVW	0.78884 ± 0.00041
VVGAIVILRGLR	0.632 ± 0.018
VVGALRFSDLFK	0.73 ± 0.042
VVGAVFFGCRLL	0.6 ± 0.15
VVGGVLRFLLLW	0.599 ± 0.013

Sequence	protein stability index
VVGPVLTCAVRF	0.617 ± 0.076
VVHSRSTPAHPH	0.679 ± 0.12
VVLGESSGGVGV	0.643 ± 0.097
VVPSRCCQRLRK	0.716 ± 0.035
VVRLRCSVGWCS	0.575 ± 0.011
VVRQDQPDLKSS	0.691 ± 0.008
VVRRHKRVLMRF	0.659 ± 0.015
VVSDGARLVWGG	0.754 ± 0.12
VVSYFFSNDVLH	0.752 ± 0.073
VVSYVHTQPPLS	0.684 ± 0.073
VVTFSRSDIVLR	0.694 ± 0.076
VVVFPYCPLPLV	0.597 ± 0.076
VVVGVGGGVDMG	0.685 ± 0.0082
VVVSDFRSCNMS	0.736 ± 0.043
VVVVRCGWGGCG	0.592 ± 0.012
VWASVRRIFRVG	0.554 ± 0.0058
VWGVRVVCGFTV	0.533 ± 0.0038
VWLGGRECVVRG	0.597 ± 0.02
VWRGVWQVVVGG	0.5227 ± 0.0013
VWSDGCWVDWLL	0.733 ± 0.13
VWSGGCVSRWSG	0.745 ± 0.15
VWSLGLSVVGLW	0.649 ± 0.092
VYFLRLERVPSF	0.696 ± 0.017
VYGGFGGGRWVI	0.702 ± 0.087
VYGVLLGWGCVV	0.577 ± 0.015

Sequence	protein stability index
VYGWSPLSEARN	0.738 ± 0.025
VYLVVSSSMDYR	0.633 ± 0.078
VYNLHRGLFLSL	0.512 ± 0.0097
VYSAGRAVGLAG	0.673 ± 0.035
VYSGYVFRKDGI	0.695 ± 0.024
VYTNAVPLSSNA	0.817 ± 0.1
VYVEMWGTSENW	0.653 ± 0.011
WAGGGFVVGCVG	0.629 ± 0.062
WALRADGGERTG	0.684 ± 0.021
WAPFGKMVGGPW	0.785 ± 0.027
WAPPPPYSPFSL	0.704 ± 0.0098
WARFRKGEVRSG	0.748 ± 0.072
WARLVSSSLAAT	0.61763 ± 0.00038
WAVGGKVNEVIE	0.757 ± 0.06
WCGSSGLFLVVW	0.594 ± 0.017
WCTLNGASLCLH	0.7719 ± 0.0067
WCWTYLRFSVEL	0.677 ± 0.055
WDGGGGGFGLVV	0.755 ± 0.06
WDGWPTRAGGTG	0.7141 ± 0.0069
WEGVGERVGGGA	0.638 ± 0.017
WENMDKCSKGLI	0.6767 ± 0.0033
